Assay: yeast display, Sf9 membrane polyspecificity reagent, FACS + sequencing; frameworks hold sequencing errors
Procedure, shortened: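 Galactose induction of a Saccharomyces cerevisiae BJ5465 synthetic nanobody display library ran 36–48 hours. The cells were then stained for 1 hour at 4 °C with 10% biotinylated, detergent-solubilized Sf9 membrane reagent, pulled down on streptavidin microbeads and FACS-sorted into low and high (top ~1%) gates on expression and reagent-binding fluorescence. Labels for polyreactivity follow the gate of origin.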

For “QVQLVESGGGLVQAGGSLRLSCAASGPTLRSYAMGWYRQAPGKERELVAAITRASGARTFYADSVKGRFTISRDSAKNTVYLQMNSLKPEDSAGYYCTAVGRSDLFEYWGQGTQVTVSS”, which “polyreactivity (PSR sort gate)” value is on record?
The value was “high polyreactivity”.

With “QVQLVESGGGLVQAGGSLRLSCAASGQIFFVYAMGRYRQAPGKESELVAAISFSAGRTYYADSVKGRFTISRDNAKNTVYLQMNSLKPEDTAVYYCNALRQDTGHYPYDYWGQGTQVTVSS” as the sequence, how does the “polyreactivity (PSR sort gate)” value read?
The value was “low polyreactivity”.

With “QVQLVESGGGLVQAGGSLRLSCAASGRICDYNVMGWYRQAPGKERELVADITSSGGSTYYADSVKGRFTISRDNAKNTVYLQMNSLKPEDTAVYYCYISYFTFYDDFYYWGQGTQVTVSS” as the sequence, how does the “polyreactivity (PSR sort gate)” value read?
Its value is “low polyreactivity”.

With “QVQLVESGGGLVQAGGSLRLSCAASGRICVTYAIGRYRQAPGKERELVAASTYSGGSTYYADSVKGRFTISRDNAKNTVYLQMNSLKPEDTAVYYCGWTYHYHRESWGQGTQVTVSS” as the sequence, how does the “polyreactivity (PSR sort gate)” value read?
Its value is “low polyreactivity”.

For “QVQLVESGGGLVQAGGSLRLSCAASGRIDLDYDMGWYRPAAGKERELVATISSGGSTNYADSVKGRFTISRDNAKNTVYLQMNSLKPDDTAVYYCNKDYHVRYYYWGQGTQVTVSS”, which “polyreactivity (PSR sort gate)” value is on record?
The value was “low polyreactivity”.

With “QVQLVESGGGLVQAGGSLRLSCAASGRIFAAYAMGWYRQAPGKERELVATITRGGSTYYADSVKGRFTISRDNAKNTVYLQMNSLKQKDTAVYYCAVKRGFTQYKPFNYWGQGTQVTVSS” as the sequence, how does the “polyreactivity (PSR sort gate)” value read?
Its value is “high polyreactivity”.

For “QVQLVESGGGLVQAGGSLRLSCAASGRIFADYAMGWYRQAPGKEREMVADIRQSGGRTYYADSVKGRFTISRDNAKNTVYLQMNSLKPEDTAVYYCATEYGSLGDYSGKYDYWGQGTQVTVSS”, which “polyreactivity (PSR sort gate)” value is on record?
Its value is “low polyreactivity”.

Which “polyreactivity (PSR sort gate)” value does the source give for “QVQLVESGGGLVQAGGSLRLSCAASGRIFAFSAMGWSRQAPGKERELVAAISSGGSTYYADSVKGRFTISRDNAKNTVYLQMNSLKPEDTAVYYCAASGLYYYRYRYYYWGQGTQVTVSS” here?
Its value is “high polyreactivity”.

With “QVQLVESGGGLVQAGGSLRLSCAASGRIFAFYAMGWYRQAPGKERELVAAITSGGSTKYADSVNGRFSISRDNAKNTVYLLMNSMKPEDTAVYYCAARYRWQFRSQYDYWGQGTQVTVSS” as the sequence, how does the “polyreactivity (PSR sort gate)” value read?
The value was “high polyreactivity”.

For “QVQLVESGGGLVQAGGSLRLSCAASGRIFAFYVMGWYRQAPGKERELVAAITSGGNTNYADSVKGRFTISRDNAKNTVYLQMNSLKPEDTAVYYCARAWLGQYTLGTYYYWGQGTQVTVSS”, which “polyreactivity (PSR sort gate)” value is on record?
The value was “low polyreactivity”.

For “QVQLVESGGGLVQAGGSLRLSCAASGRIFAGNAMGWYRQAPGKERELVAAISNGGSTYYADSVKGRFTISRDNAKNTVYLQMNSLKPEDTAVYYCNARTRLRKYQYYYWGQGTQVTVSS”, which “polyreactivity (PSR sort gate)” value is on record?
Its value is “high polyreactivity”.

For “QVQLVESGGGLVQAGGSLRLSCAASGRIFAGYAMGWSRQAPGKERELVASIRSSGSTYYADSVKGRFTISRDNAKNTVYLQMNSLKPEDTAVYYCATTGRRWYYPYHYWGQGTQVTVSS”, which “polyreactivity (PSR sort gate)” value is on record?
Its value is “high polyreactivity”.

Which “polyreactivity (PSR sort gate)” value does the source give for “QVQLVESGGGLVQAGGSLRLSCAASGRIFAGYAMGWYRKAPGKERELVASIRSSGSTYYADSVKGRFTISRDNAKNTVYLQMNSLKPEDTAVYYCAARSGYFRSRFDYWGQGTQVTVSS” here?
Its value is “high polyreactivity”.

For “QVQLVESGGGLVQAGGSLRLSCAASGRIFAGYAMGWYRQAPGKERELVATITRGGSTNYADSVKRPFTISRDNAKNTVYLQMNSLKPDDTAVYYCNADIRRHGGYAHEYWGQGTQVTVSS”, which “polyreactivity (PSR sort gate)” value is on record?
Its value is “low polyreactivity”.

For “QVQLVESGGGLVQAGGSLRLSCAASGRIFAGYPMGWYRQAPGKERELVATFTRGGSTNYADSVKRPFTISRDNAKNSVYLQMNSLKPEDTAVYYCNAAIRRHGGYAHEYWGQGTQVTVSS”, which “polyreactivity (PSR sort gate)” value is on record?
Its value is “low polyreactivity”.

For “QVQLVESGGGLVQAGGSLRLSCAASGRIFAGYPMGWYRQAPGKERELVATITRGGSTNYADSVKRPFTISRDNAKYTVYLQMNSLKPEDTAVYYCNADPGGRYPRRGYAHEGDYWGQGTQVTVSS”, which “polyreactivity (PSR sort gate)” value is on record?
The value was “low polyreactivity”.

Which “polyreactivity (PSR sort gate)” value does the source give for “QVQLVESGGGLVQAGGSLRLSCAASGRIFAHYEMGWYRQAPGKERELVAAISSGGSTYYADSVKGRFTISRDNAKNTVYLQMNSLKPEDTAVYYCNKRPVRRKYDYWGQGTQVTVSS” here?
Its value is “low polyreactivity”.

With “QVQLVESGGGLVQAGGSLRLSCAASGRIFAIYAMGWYRQAPGKERELVAGITYSAGSTYYADSVKGRFTISRDNAKNTVYLQMNSLKREDTAVYYCAALEYTSHRYGYDYWGQGTQVTVSS” as the sequence, how does the “polyreactivity (PSR sort gate)” value read?
The value was “low polyreactivity”.

For “QVQLVESGGGLVQAGGSLRLSCAASGRIFALYAMGWYRQAPGKDRELVAAITSSDGSTYYADSVKGRFTISRDIAKNSVYFQMKSLKPEDTAVYYSAAVWWRYYQDPYYYWGQGTQVTVSS”, which “polyreactivity (PSR sort gate)” value is on record?
Its value is “low polyreactivity”.

With “QVQLVESGGGLVQAGGSLRLSCAASGRIFALYAMGWYRQAPGKERELVATITRSGTNTYYADSVKGRFTISRDNAKNTVYLQMNRLKPEDTAVYYCAAYRFWQRTMGYWGQGTQVTVSS” as the sequence, how does the “polyreactivity (PSR sort gate)” value read?
Its value is “high polyreactivity”.

With “QVQLVESGGGLVQAGGSLRLSCAASGRIFAQNAMGWYRPAPGKERELVAAISWGGGGTYYADSVKGRFTISRDNAKNTVYLQMNSLKPEDTAVYYCAADSPGFGAWDRYEYWGQGTQVTVSS” as the sequence, how does the “polyreactivity (PSR sort gate)” value read?
Its value is “low polyreactivity”.

With “QVQLVESGGGLVQAGGSLRLSCAASGRIFARNAMGSYRQAPGKERELVATIRVGGGSTYYADSVKGRFTISRDNAKNTVYLQMNSLKPEDTAVYYCAVRQLYSYPGDRRGYYWGQGTQVTVSS” as the sequence, how does the “polyreactivity (PSR sort gate)” value read?
Its value is “low polyreactivity”.

For “QVQLVESGGGLVQAGGSLRLSCAASGRIFARYVMGWYRQAPGKERELVAAISPSGSRTYYADSVKGRFTISRDNAKNTVYLQMNSLKPEDTAVYYCAATGVYTKNPRGMDYWGQGTQVTVSS”, which “polyreactivity (PSR sort gate)” value is on record?
The value was “high polyreactivity”.

Which “polyreactivity (PSR sort gate)” value does the source give for “QVQLVESGGGLVQAGGSLRLSCAASGRIFASKAMGWYRQAPGKERELVAAITTTGGSTYYADSVKGRFTISRDNAKNTVYLQMNSLKPEDTAVYYCASRAIPRVRRYGSMNYWGQGTQVTVSS” here?
Its value is “high polyreactivity”.

For “QVQLVESGGGLVQAGGSLRLSCAASGRIFASYAMGWYRQAPGKERELVAAISAGGGSRTYYADSVKGRFTISRDNAKNTVYLQMNSLKPEDTAVYYCNTANSWQRQYYYWGQGTQVTVSS”, which “polyreactivity (PSR sort gate)” value is on record?
Its value is “high polyreactivity”.

With “QVQLVESGGGLVQAGGSLRLSCAASGRIFASYAMGWYRQAPGKERELVAAISLSGGSTYYADSVKGRFTISRDNAKNTVYLQMNSLKPEDTAVYYCNARAIGWRIYDYWGQGTQVTVSS” as the sequence, how does the “polyreactivity (PSR sort gate)” value read?
The value was “high polyreactivity”.

With “QVQLVESGGGLVQAGGSLRLSCAASGRIFASYGMGWYRQAPGKETELVATINSSGGSTYYADSVKGRFTISRDNAKNTVYLQLKSLKPEDTAVYYSNARHGYYKYGYWGQGTQVTVSS” as the sequence, how does the “polyreactivity (PSR sort gate)” value read?
The value was “low polyreactivity”.

With “QVQLVESGGGLVQAGGSLRLSCAASGRIFATNAMGWDRPAPGKERELVATITRSAGRTYYADSVKGRFTISRDNAKNTVYFQMNSLKPEDTAVYYCAASYWDTEPGYREYDYWGQGTQVTVSS” as the sequence, how does the “polyreactivity (PSR sort gate)” value read?
The value was “low polyreactivity”.

Which “polyreactivity (PSR sort gate)” value does the source give for “QVQLVESGGGLVQAGGSLRLSCAASGRIFAVNAMGWYRQAPGTERELVAAITNVASTKYADSVKGRFTISRDNAKNTVYLQMNSLKQEDTAVYYCNADLSQEDWKMDYWGQGTQVTVSS” here?
The value was “low polyreactivity”.

Which “polyreactivity (PSR sort gate)” value does the source give for “QVQLVESGGGLVQAGGSLRLSCAASGRIFAVYAMGWYRQAAGKERELVAAITSTGSTNYADSVKGRFTISRDNAKNTVYLQMNSLKPEDTAVYYCAKRRHSSWLRYNYWGQGTQVTVSS” here?
Its value is “low polyreactivity”.

With “QVQLVESGGGLVQAGGSLRLSCAASGRIFAWNDMGWYRQAPGKERELVAAITSGGSTYYADSVKGRFTISRDNAKNTVYLQMNSLKPEDTAVYYCAADRVRRNDKLAYDYWGQGTQVTVSS” as the sequence, how does the “polyreactivity (PSR sort gate)” value read?
The value was “low polyreactivity”.

With “QVQLVESGGGLVQAGGSLRLSCAASGRIFAYKAMGWYRQEPGKERELVAAISWSGSSTYYADSVKGRFTISRDNAKNTVYLQMNSLKPEDTAVYYCAATPWYYYSTSYAYYFWGQGTQVTVSS” as the sequence, how does the “polyreactivity (PSR sort gate)” value read?
Its value is “high polyreactivity”.

With “QVQLVESGGGLVQAGGSLRLSCAASGRIFAYNAMGWYRQAPGKERELVAAISSGGNTYYADSVKGRFTISRDNAKNTVYLQMNSLKPEDTAVYYCNAGVGWHRYYSNYDFWGQGTQVTVSS” as the sequence, how does the “polyreactivity (PSR sort gate)” value read?
The value was “low polyreactivity”.

With “QVQLVESGGGLVQAGGSLRLSCAASGRIFAYYAMGWYREAAGKERELVAAITTNGGGTYYADSVKGRFTISRDNAKNTVYLQMNSLKPEHTAVYYSNADKQRSSIFDYWGQGTQVTVSS” as the sequence, how does the “polyreactivity (PSR sort gate)” value read?
The value was “low polyreactivity”.

Which “polyreactivity (PSR sort gate)” value does the source give for “QVQLVESGGGLVQAGGSLRLSCAASGRIFAYYAMGWYRQAPGKERELVAAISGGGGSTYYADSVKGRFTISRDNAKNTVYLQMNSLKPEDTAVYFCAAKSSRYDYYYWGHGTQVTVSS” here?
The value was “high polyreactivity”.

With “QVQLVESGGGLVQAGGSLRLSCAASGRIFAYYAMGWYRQAPGKERELVAAITTNGGGTYYADSVKGRFTISRDNAKNTFYLQMNSLKPEDTGVYYCNAVKQRSSIFDYWGQGTQVTVSS” as the sequence, how does the “polyreactivity (PSR sort gate)” value read?
Its value is “low polyreactivity”.

Which “polyreactivity (PSR sort gate)” value does the source give for “QVQLVESGGGLVQAGGSLRLSCAASGRIFAYYAMGWYRQPPGKERELVAAISRSGVSTYYADSVKGRFTISRDNAKNTVYLQMNSLKPEDTAVYYCAKTLSPEGVPYDYWGQGTQVTVSS” here?
Its value is “low polyreactivity”.

Which “polyreactivity (PSR sort gate)” value does the source give for “QVQLVESGGGLVQAGGSLRLSCAASGRIFAYYLMGCYRQAPGKEREFVAAISWSGGRTYYADSVKGRFTISRDNAKNTVYLQMNSLKPEDTAVYYCNAGRPLWLAYGMDYWGQGTQVTVSS” here?
Its value is “low polyreactivity”.

Which “polyreactivity (PSR sort gate)” value does the source give for “QVQLVESGGGLVQAGGSLRLSCAASGRIFAYYVMGWYRQAPGKERELVAAITWSGTSTYYADSVKGRFTISRDNAKNTVYLQMNSLKPEDTAVYYCNAVWSRSTRGYDYWGQGTQVSVSS” here?
The value was “high polyreactivity”.

Which “polyreactivity (PSR sort gate)” value does the source give for “QVQLVESGGGLVQAGGSLRLSCAASGRIFCGYMGWYRQAPGKEREFVAAISVRGGGTYYADSVKGRFTISRDNAKNTVYLQMNSLKPEDTAVDYCNTRGGWPYDYWGQGTQVTVSS” here?
Its value is “low polyreactivity”.

Which “polyreactivity (PSR sort gate)” value does the source give for “QVQLVESGGGLVQAGGSLRLSCAASGRIFDANAMGWYRQAPGKERELVAAITYSGGRTYYADSVKGRFTISRDNAKNTVYLQMNSLKPEDTAVYYCAKRYAYIYDSWGQGTQVTVSS” here?
Its value is “low polyreactivity”.
